Source: patent publication US20190212347A1, “BIO-ANALYTICAL METHOD FOR INSULIN ANALOGUES” (BIOCON LIMITED, priority 2016, published 2019)

Legend:
[1] = Stability of stock solution in acetic acid (2%) in methanol:water; format: physicochemical; conditions: acetic acid (2%) in methanol:water (30:70 v/v)
Description: Two separate stock solutions were prepared by dissolving 2 mg of IN-105 and dissolving in 1 mL of 2% acetic acid containing methanol:water in the ratio of 30:70 v/v. Thus, the stock solution of 2000 μg/mL was prepared.
One was named “calibration stock” and other was named “quality control stock”. The stock solution was stored at −20° C. for 40 days.
In one embodiment nitrogen isotope labelled insulin having purity 96.3% and 96.1% respectively, was used as analytical standard and internal standard for further analysis. Glargine (3.64 mg/mL) of 100% purity was used as co-administered standard in the analytical procedure. The stability studies to understand storage stability and solution stability were carried out.
In addition to the experiments described above, selectivity of the method in plasma (K2EDTA/K3EDTA) from different sources, effect of lipaemia and haemolysis, selectivity and modification of ionisation of insulin in the presence of Glargine and stability of solutions of insulin or insulin analogues investigated.

[2] = Stability in human plasma (room temperature, freeze/thaw, frozen storage); format: in vitro ADME
Description: Assessment of sample stability on storage (storage stability) was carried according to table (8), Acceptance criterion was defined as a recovered concentration within ±15% of the nominal spiked concentration. All standards were used within its stability period.
Validation consisted of intra run precision and bias, inter-run precision and bias, dilution integrity, matrix related modification of ionisation, auto-injector carry over, stability in whole blood at room temperature and on ice, freeze thaw stability of plasma over 5 cycles, 24 h room temperature stability of plasma, […], recovery and extract stability at 10° C.

[3] = Extract stability at 10° C.; format: physicochemical; conditions: extracts stored at 10° C. for approximately 85 hours
Description: Validation consisted of intra run precision and bias, inter-run precision and bias, dilution integrity, matrix related modification of ionisation, auto-injector carry over, stability in whole blood at room temperature and on ice, freeze thaw stability of plasma over 5 cycles, 24 h room temperature stability of plasma, frozen stability in plasma at −20 and −80° C. for 73 days, recovery and extract stability at 10° C.

[4] = Pharmacokinetics study: IN-105 plasma levels by LC/MS/MS in euglycemic clamp study in patients with Type 1 diabetes; format: in vivo, human
Description: The method was considered validated successfully since it passed all the pre-determined criteria in the validation protocol. The validated method was subsequently used for measurement of IN-105 levels in a euglycemic clamp study carried out in patients with Type 1 diabetes. The method for the determination of IN-105 in human plasma has been validated successfully over the concentration range 0.200 ng/ml to 50.0 ng/mL.
Plasma concentration data for each patient and treatment was analysed by a non-compartmental method. The area under plasma level curve for AUC0-t was calculated by the trapezoidal rule. The primary pharmacokinetic parameters (mean±SD) were Cmax, AUClast, Tmax and PD parameters were Tmin, Cmin, AUClast. Ratios and 90% CIs of geometric means were calculated for PK and PD parameters from mixed effects model with fixed effects for sequence, period and treatment, and patients within sequence as a random effect for log transformed Cmax and AUC.
The average plasma concentration time profile of IN-105 obtained after administration of IN-105 tablets in volunteers is shown in FIGS. 13-14.

[5] = room temperature, up to 24 hours

Substance	solution stability at room temperature [1, 5]	solution stability at −20° C. ([1]; −20° C., up to 40 days)	frozen stability in plasma at −20° C. ([2]; 244 days storage at −20° C.)	frozen stability in plasma at −80° C. ([2]; 244 days storage at −80° C.)	freeze/thaw stability in plasma ([2]; after five freeze/thaw cycles)	stability in plasma stored at room temperature [2, 5]	extract stability [3]	mean plasma concentration as a function of time after dosing ([4]; 30 mg/kg dose, FIG. 15)	AUClast (AUCt) as function of dose: intercept ([4]; AUClast in ng · h/ml, linear regression against dose) [area units]	AUClast (AUCt) as function of dose: slope ([4]; AUClast in ng · h/ml, linear regression against dose, oral tablets, T1D patients) [area units/mg]	Cmax as function of dose: intercept ([4]; Cmax in ng/ml, linear regression against dose) [concentration units]	Cmax as function of dose: slope ([4]; Cmax in ng/ml, linear regression against dose, oral tablets, T1D patients) [concentration units/mg]	correlation of maximal plasma concentration and area under the PK curve with dose ([4]; p<0.05)
[^15N] IN-105: IN-105 labelled with stable isotope 15N by fermentation in labelled medium; used as internal standard	stable	stable											
IN-105: rapid acting insulin analogue for oral delivery; human insulin sequence conjugated with short chain alkyl-polyethylene glycol at ε-amino group of lysine B29			stable	stable	stable	stable	stable	well-defined peak concentration and subsequent clearance is evident	−243.525	26.427	−2.421	0.431	linearly correlated significantly
